The values that follow come from PMC2661964, “Mammalian Kinesin-3 Motors Are Dimeric In Vivo and Move by Processive Motility upon Release of Autoinhibition” (PLoS Biology, 2009).

The data set concerns the molecule itself. Put plainly: cross-linking; cytosolic extracts of rat brain and detergent extracts of murine cortical neurons, with or without DMP; SDS-PAGE, immunoblot with anti-KIF1A. (In general: In western blotting, separated proteins are transferred to a membrane and probed.)

B1: endogenous KIF1A in rat brain cytosol (natural protein, rat (endogenous in rat brain), UniProt F1M4A4 1-1707, looked up)
chain: MAGASVKVAVRVRPFNSREMSRDSKCIIQMSGSTTTIVNPKQPKETPKSFSFDYSYWSHTSPEDINYASQKQVYRDIGEEMLQHAFEGYNVCIFAYGQTGAGKSYTMMGKQEKDQQGIIPQLCEDLFSRINDTTNDNMSYSVEVSYMEIYCERVRDLLNPKNKGNLRVREHPLLGPYVEDLSKLAVTSYNDIQDLMDSGNKARTVAATNMNETSSRSHAVFNIIFTQKRHDAETNITTEKVSKISLVDLAGSERADSTGAKGTRLKEGANINKSLTTLGKVISALAEMDSGPNKNKKKKKTDFIPYRDSVLTWLLRENLGGNSRTAMVAALSPADINYDETLSTLRYADRAKQIRCNAIINEDPNNKLIRELKDEVTRLRDLLYAQGLGDITDTNTVPGGPKLTNALVGMSPSSSLSALSSRAASVSSLHERILFAPGSEEAIERLKETEKIIAELNETWEEKLRRTEAIRMEREALLAEMGVAMREDGGTLGVFSPKKTPHLVNLNEDPLMSECLLYYIKDGVTRVGREDAERRQDIVLSGHFIKEEHCIFRSDSRGGGEAVVTLEPCEGADTYVNGKKVTEPSILRSGNRIIMGKSHVFRFNHPEQARQERERTPCAETPAEPVDWAFAQRELLEKQGIDMKQEMEQRLQELEDQYRREREEATYLLEQQRLDYESKLEALQKQMDSRYYPEVNEEEEEPEDEVQWTERECELALWAFRKWKWYQFTSLRDLLWGNAIFLKEANAISVELKKKVQFQFVLLTDTLYSPLPPDLLPPEAAKDRETRPFPRTIVAVEVQDQKNGATHYWTLEKLRQRLDLMREMYDRAAEVPSSVVEDCDNVVTGGDPFYDRFPWFRLVGRAFVYLSNLLYPVPLVHRVAIVSEKGEVKGFLRVAVQAISADEEAPDYGSGVRQSGTAKISFDDQHFEKFQSESCPVVGMSRSGTSQEELRIVEGQGQGADAGPSADEVNNNTCSAVPPEGLLDSPEKAALDGPLDTALDHLRLGSTFTFRVTVLQASSISAEYADIFCQFNFIHRHDEAFSTEPLKNTGRGPPLGFYHVQNIAVEVTKSFIEYIKSQPIVFEVFGHYQQHPFPPLCKDVLSPLRPSRRHFPRVMPLSKPVPATKLSTMTRPSPGPCHCKYDLLVYFEICELEANGDYIPAVVDHRGGMPCMGTFLLHQGIQRRITVTLLHETGSHIRWKEVRELVVGRIRNTPETDEALIDPNILSLNILSSGYVHPAQDDRQFLDSDIPRTFYQFEAAWDSSMHNSLLLNRVTPYREKIYMTLSAYIEMENCTQPAVITKDFCMVFYSRDAKLPASRSIRNLFGSGSLRATEGNRVTGVYELSLCHVADAGSPGMQRRRRRVLDTSVAYVRGEENLAGWRPRSDSLILDHQWELEKLSLLQEVEKTRHYLLLREKLETTQRPVPEVLSPASSEDSESRSSSGASSPLSAEGQPSPLEVPNERQRELAVKCLRLLMHTFNREYTHSHVCISASESKLSEMSVTLMRDPSMSPLGAATLTPSSTCPSLIEGRYGATDVRTPQPCSRPASPEPELLPELDSKKTPSPVRATETEKEPQRLLVPDIQEIRVSPIVSKKGYLHFLEPHTAGWAKRFVVVRRPYAYMYNSDKDTVERFVLNLSTAQVEYSEDQQAMLKTPNTFAVCTEHRGILLQANSDKDMHDWLYAFNPLLAGTIRSKLSRRRSAQMRV
notes: KIF1A, endogenous protein of rat brain cytosol; source: endogenous, cytosolic extract of rat brain
Consider B1, for which the “stoichiometry N” value stood at 2.

By stoichiometry N is commonly meant the number of molecules, sites or subunits per partner or assembly.
